Test results: US6300088A, “Method of detecting prostate specific antigen” (Duke University, priority 1998, dated 2001)
No end group written: not given here.

What was measured:
[1] = mouse, in vivo, iv
Description: (§1) Plasma Elimination Studies--This procedure has been described in detail elsewhere. […] In brief, approximately 1.0 μg of radioiodinated protein or peptide was injected into the lateral tail vein of CD-1 mice. Blood samples of 25 μl were collected at timed intervals via retroorbital puncture. The initial time point, taken 5-10 seconds after injection, was considered to represent 100% radioactivity in circulation. Each preparation was studied at least in triplicate.

[2] = Plasma elimination studies in CD-1 mice (radioiodinated protein or peptide injected into the lateral tail vein)
Description: as §1

[3] = Tissue distribution of radioactivity in organs after the plasma elimination experiments (γ-counter); type: in vivo; conditions: mouse, after plasma elimination experiment; FIG. 5
Description: Each preparation was studied at least in triplicate.
Following the plasma elimination experiments the organs of the test mice were examined for radioactivity using a γ-counter.

Ala-Pro-Leu-Ile-Leu-Ser-Arg (APLILSR; not fully specified; printed as Ala-Pro-Leu-Ile-Leu-Ser-Arg) [activation peptide]
effect of excess unlabelled activation peptide on clearance rate / half-life [1]: not significantly affected | plasma elimination half-life of the peptide [1]: less than 2 minutes

^125 I-α1 -ACT.cndot.PSA complexes: complex of prostate specific antigen with the protease inhibitor α1-antichymotrypsin
half-life of removal from the mouse circulation ([2]; i.v. lateral tail vein, labelled complex injected alone): approximately 20 minutes | half life in mouse circulation on coinjection with excess unlabeled complex ([2]; i.v., coinjected with a large excess of unlabeled α1-ACT·PSA complexes): several hours | half life of complex compared to native α1-ACT ([2]; mouse, i.v., FIG. 3): significantly reduced

B1: ^125 I-α1 -ACT: α1-antichymotrypsin, purified as previously described (Salvesen et al.) (protein, UniProt P01011 24-423, looked up)
Alpha-1-antichymotrypsin: HPNSPLDEENLTQENQDRGTHVDLGLASANVDFAFSLYKQLVLKAPDKNVIFSPLSISTALAFLSLGAHNTTLTEILKGLKFNLTETSEAEIHQSFQHLLRTLNQSSDELQLSMGNAMFVKEQLSLLDRFTEDAKRLYGSEAFATDFQDSAAAKKLINDYVKNGTRGKITDLIKDLDSQTMMVLVNYIFFKAKWEMPFDPQDTHQSRFYLSKKKWVMVPMMSLHHLTIPYFRDEELSCTVVELKYTGNASALFILPDQDKMEEVEAMLLPETLKRWRDSLEFREIGELYLPKFSISRDYNLNDILLQLGIEEAFTSKADLSGITGARNLAVSQVVHKAVLDVFEEGTEASAATAVKITLLSALVETRTIVRFNRPFLMIIVPTDTQNIFFMSKVTNPKQA
modifications: 125I label
half life in mouse circulation ([2]; i.v. lateral tail vein, injected alone, estimated): several hours | organs with predominant radioactivity (tissue distribution) [3]: bladder and kidney
